# Reference: the supplement of paper PMC12636428
# Test system: Saccharomyces cerevisiae
# Assay: transcriptional activation domain activity (GFP:mCherry ratio, weighted mean of sorted bins, harmonized to initial dataset scale) (arbitrary fluorescence ratio units); higher = stronger transcriptional activation
# Details: beta-estradiol 1 µM; induction time 4 h
# Summary of the method: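 Sorting into 8 bins by GFP:mCherry ratio followed a 4-hour hold at 30 °C after cultures were diluted 1:5 into SC with 1 uM beta-estradiol. The yeast diploids carried a GFP reporter and had barcoded protein tiles, fused to an estradiol-inducible synthetic transcription factor, integrated at URA3. Barcodes were then sequenced, and tiles with under 50 reads were removed. Activation activity is the read-weighted mean of bin median fluorescence, averaged across barcodes and linearly mapped onto the initial dataset scale.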
row,Sequence,transcriptional activation domain activity
1,RQREGQIERRGEGRAWRTEGGARGGRRKGARREKGTGREGRRRARKKAKRDRP,27600
2,IMGRYCAKAVWLDTRQHLLNKLSQIGFNWDVLKSLVKSWWHYYSLAVMLWLYQ,69200
3,HCIEAGIKLVSQFIDMYKEFSPGGKLCQVCWMLTNFSMNDFLLGVMVLCLVIH,56200
4,YLPTLPDAFPFGADIGSLDAISNIPWMSWNPVMAHFSFPWFMDELEMPLELPD,102000
5,GHDGHGKGHGHGKGGHGRYARGEEAELEERGYGHGHGGHGKGGHGRYAREEEA,21100
6,KAAPAQDGAAAGERNGAEAAEAGEEEEEAEGEAAAEPGAEAAEKPAPKPAAAA,42100
7,RLLRLLLRLLRLLLLRLLLLLLLLLLLLLLLRLLLRLLVTLILFLNIQRVLIL,16300
8,SGGKTVLQGAFAGESGRISSGGPFGHGRGKEGQEQAIDNGRQRIARLAHGLRL,23600
9,SPWVSWADTHSNFSRVVQVPSIYWRADPYSTASAETLRWATVVCVLLFFAYFR,42700
10,MISIAGFYLFFLGYWRFWMLFINLIVGLLATIGHHVSGLACLIFFCGSSVRIS,35300
11,VYTVMILSTIFGICYVPFGVFICDSLKAYPGEVTNCSHQMQNLATIFFILFSV,57000
12,PAEGAEDAGEVKKKHRKRRRKRRGDAKDAAAEGGDEPENEDGEVGEGDNAAVS,9150
13,ELLLLWYIYFLGIQYAQDFCQYKKMLILTEDTMWGWDLYSFYNSIVFHGTGVP,75000
14,FVWILETLNTGFSAHAIEYFAIYNKGNMMMLWSVPWTISVSNNLLCSTLGLNH,32200
15,ALTLEYFYFECSTPVPDGLLTDPLPPLPKLLVIHFFFYLSQHTIYLLLHILSQ,60200
16,ITVYMVIIIFCLFQFFLFLIIVGLVPRIDTTYFGWSCWGYGRIIFSWWISGSF,34400
17,FLAAVTCLLCVIGIFICLLFHANPYLRLIPLLIMIQSICFVLFSHFGLCLYRL,39400
18,KKSVLQLLAWLMHYKLYPTRNYKAICNCLPKLFENPLWAEFCSKMADTMVKYN,46300
19,MGNGSVLLFLLFLCYGKGLGFFIFTFFFLFYLCIIYFFFPLFYYYLPLLSAGW,67100
20,MPNDWFIYGCIFLECYISYGVYIRVWFLLMDFVLGPISHLSIYFLWIWFILLC,66900
21,FGRSKAKRRAGRGFGTSGYGAGSSASNGGKDAKGGDTKGAENRYHDNKDEDND,38200

row,Sequence,transcriptional activation domain activity
1,MRTPSTSPFDFCFFFAFSFLLLCWPVIPFILLFYILKFLWTYPFVFCVLYFIE,37600
2,MTRMLPLSFELFKFIVNLCLALVFTSWLFSWSKMLLILGLICVCRDFLSLVIV,31700
3,AAEGGDSVAKSSPAKPKQSKQSKKRPRDEDGEGAGEAPASKKQPKAKAKAAKA,26100
4,SGRTATSAKSHNIISGYREEVEQANLNLSLIDSQVVLLRAWKLLAMELCPFAF,55900
5,EKGEEGGSGGEGGEGRRGGQARGTGRRAGQEGKGPGKGEGGAARRRKEGEARK,54500
6,MVLCPSSYSFPLPPFFLFFFLSSPFFFAALFFFFPFLPPNSRVCPSLFPLSLL,62600
7,LRRGFSKLLLIDDLYVLDKHLRSDRLRDLLWSAYVRAIVPRLCLIAFNFCQPF,60800
8,LLTYKLYRLWIVAAKITDDEKRKQCLHLTCCLLPKCHRDSLEILFYFLKWAGT,50700
9,GLLCWIAIRKLGIIGLYVYMDDFFGWDFLDNLIFYRGMRRPRRQVLLLILWEF,50700
10,MIILGRMGYSHVLLLPFFNSICFSFLFLPHSLCCLHFNSFYTYFLLLPHPHLF,61900
11,EAAVTSDDEAGPAKKAKRGSVFEKFGGKFKSHKAAEKEPEAKEEAKEEEAKPA,14000
12,RPVLDVALAAGEEDLSSKPRCQRCRKSKKGCDRQRPCGRCRDAGIGIEGCISE,31500
13,PFTELFRRFLFSNIRFTSKVTIISYIGTYYAIGAAWIMTTANYFAIGWFNGYL,46500
14,LLDELMNQTKVLQETLDFSLVTPTPHHNDDYKIHGSAYPGGETPAQQHEKLSY,35700
15,ENNDQFNNKTRKRKRRMSSTSSTSKASRKNSISRKNSAVTTAPAQKDDVENNK,< 6570
16,SLLVLCECLLMTIGVVFTTPHVDFIYRCVNTVTPTTMVYFVVCVLFNHLVILL,73100
17,PVKADEPAAPVEAVKETETAAPVEDAAAPEVAAEAPKEEVKEEKVRSLRTAIS,27300
18,MLLLFVYPCSPLSHCSSFYSYYLIIKLLLFYDIKNLSFFFFLEYFDLWWLITI,78500
19,MRSSLPKLYRYGCLYWITGLCIFVYILYERRYYCCHNMPYFFHQPWFLCLSSL,68800
20,EGADVVVEGNERRKKGESVWEKNLRKGLYGVALDYVLEQASSPIIVLTVLTAL,60900
